Measurements from article PMC8718266.

Molecular target: HA-FBW7 (UniProt Q8VBV4)
Assay: FLAG IP, HA immunoblot
Conditions: reference: wild type

| Substance | binding against the reference (sites T171,S175) | binding against the reference (sites T243,S247) |
| --- | --- | --- |
| KLF2 (3xFLAG-KLF2) (from UniProt Q60843) 2A N (T171A/S175A) | weaker |  |
| KLF2 (3xFLAG-KLF2) (from UniProt Q60843) 2A C (T243A/S247A) |  | weaker |
